The nature of the data set: soluble on expression in E. coli; label from the status in PepcDB or PDB records.
In the case of “MGSDKIHHHHHHMAATFGPRIARADENGQGSEHVALSWQKMDASGWRSGEASPAALHSDHHCRRGFAMSTRDADDRREYYRIEDTLALEFRPAGAVEDGLESEPGATLFSLLSDLHLMDYESQHLLRHISERDRTLANYLKVMNKRIDLLGQVMVQSLLKEIGEPRKVSLSEGGVSFRHDRALPVGQLLVLRMVLLPQGFGLELRARVIHAQPHDDEFEIGTEFEALSDAQRQLLARHILQKQAQQRRLARAGQGPLGEPGQPSST”, the “soluble on expression in E. coli” value is “not soluble”. As for “MAHHHHHHMANISPNSDGDSFVGADTAKQLSDIQKKLNDLKQRREELEEQRRRILGASDQSSSRPRSLRGPTQNRRRHSQPSQRTLPLRPPRPPISDHSIRIPNEKERQQTAQRTPYLEMKESMRRSWSRDSSLVMGSFLMEDNPRARTFTRERRFIPPPECNGIYFLGTEMELMIRNKNVAPSQRSGRRDNTPYRWNDIIDGVTPGPGAYTPLFSKVSKPSRRAQLF”, the “soluble on expression in E. coli” value is “not soluble”.

As for “MSLIKVLIVDDHALVRMGIRRLLEDMSDVDVVADAESGEQALAYVKTHSPDVVLLDMKMPGIDGWEVTRRLKKTNPNIKVIAVTAICSDPLPTRVLQLGAMGYLTKESGAEEMAAAIRKVAKGEKYLSAEIAQKMAINSLQESQDSPFDLLSEREMQVMLMITSGMNVQDIADRLFLSSKTINGYRYRMFEKLGIKNDVELTYLAMKHRIIEHPNDLSQDDEGHHHHHH”, the “soluble on expression in E. coli” value was “soluble”. As for “MSLHGVPFGTVPPMGTIGLIAAMPDEIRPFLRLASPAARLHGGRFPIWRLRVGNDDIVLVESGMGIDRATAATDALVAAASPVAILSFGFGGAALPGLKVGDLAVGMTSWFAGTEGIVLRRGIDRNLAEKLAEELNRICNGVTRGEIITSARILKKGDLAHSLPNGISSPILDMETAAVAEAAHRRGIPIVALRAISDDAEEELSFSLDEFTDDDMAIRPRKVLATIARKEGHHHHHH”, the entry is “soluble”; as for “MISDRPGLPGEDMRLALLSFENYLLANRNTEKPVLHIALSPAPEDKLTDEQLAELAQNYMQKMGYGDQPYIAYKHGDTHNTHIHIVSVCVDEEGRKINDSFEHRRSMTACRELEIDFGLRNGADMEERNQKAEMKKVDATQGDVRHQIGNTLKAVLESYRFQTFGEYSALLSTLNIEAKQVRGEFKGEPYTGIIYSATDDSGKVVSPPFKSSRFGKRFGNERLEKRMLSHTRDFKDGKWAPTIHAQVVYAMRHARSREELAGLLKKARIDAVFRENEQGRIYGVTFIDHNRREVFNGSRMGKEFSANIYNELFKWWDGIPATERSAHTGTELWQHHSHKAESGSPLEQAASIFSMETNPVDYGEEALARRMKKRRKAKRKSRGILEHHHHHH”, “soluble”. In the case of “MSLANADTYQPSYSTAGFYQLSNTGRTVYNMNPAWRFYKGNIEGAEQPRFNDKDWNIVSLPDGIEYLPTEASGCINYQGEIWYRKHFTPKESWKGKQQFLHFEAIMGKSKIWVNGKLLKEHFGGFLPVIVDVTSSLKYGEDNVITVWADNSDDPSYPPGKPQDALDFAYFGGIYRDCWMIVHNKVFITDPNYENETAGGGLFVSFDKVSEQSAQLKLDAHIRNTSGKSFSGKIIYELYDRDDKRVLSKETGLSVSKDLAKQISCKVTVETPHLWSPDSPYLYKLHIYIKDKAGNTIDGYYRRIGIRSIEFKGKDGFWLNGKPYPYPLMGANRHQDFAVIGNALPNSLHWRDAKKLRDAGMRVIRNAHYPQDPAFMDACDELGLFVIVNTPGWQFWNDQPIFAQRVYSDIRNMVRRDRNHPSVWMWEPILNETWYPADFAKNVVDILNEEYPYPYCYAGCDVTARGHEYFPIHFTHPMNGGGGAFNTENLDPKISYFTREWGDNVDDWNSHNSPSRVNRGWGEVPMLIQAQGYAKNDYQLTSYDGLYRTSRQHMGGCLWHSFDHQRGYHPDPFYGGIMDAFRQPKLSYYMFCSQRPAEPNKELIADEGHHHHHH” it was “soluble”; in that of “MGSDKIHHHHHHMIPLSRPDINEQDIERVVEVLKSGRLSLGEYTKRFGEMVAEYTGARFGWAVSSGTAALHLILESLDIDEGDLILVPSFTFIASVNVILMKRAIPVFVDVDERTLNVSPETLEEAVKRCLKGFKQGNIEIKGKPRLFMAVDVFGHPLDWDGILDVCQRYGIAVVEDSCEALGSEYKGRKVGTFGVAGAFAFYPNKQITTGEGGVVVTNDEKIHTAVKSMSNQGRGEGDEWLYHVRFGYNYRIDEMSAALGCSQMERIDEIVEKRAEAAERYSKMLKEFSWVKVPVVEDYVTKMSWFVYVVRLEGPDRNRVMRYMEEKGVQVRNYFYPVHFQPFYEKLFGSMKGLLPVTERESEKTLAIPFFTSITESEQKTVVEILREAVERVG”, “not soluble”; in that of “MLRVIVESASNIPKTKFGKPDPIVSVIFKDEKKKTKKVDNELNPVWNEILEFDLRGIPLDFSSSLGIIVKDFETIGQNKLIGTATVALKDLTGDQSRSLPYKLISLLNEKGQDTGATIDLVIGYDPP”, “soluble”.

As for “MSLGKHVTIGFAGPQADHGWLNAINDNAKSRAKKYGDVTLEITEGSNDTAAQIGQIETLINKKVDVLVVLPADGKALTQVGLKAMRAGIPVVNLDRIFNSPQAYRCWIGGDNYGMGLSAGRYIGEKLKDKPNARVVELAGLDNLELTKQRTQGFDAALKNYPNIRKVARQAAEFTVESGQSKMAQLLQAQSRFDALWNHDDDQGVGALRAIKQAGRDDFLMVGGAGALSAFQAIKADDGVLKATVLYPPTMAASAIDLARALGQGKGVGGLAEFEIPASLTLYSAVVDKDNVGQYMSTGFREGHHHHHH”, the “soluble on expression in E. coli” value was “soluble”. In the case of “MGALGYHPYFESNMIHSMTAFAADEHLTPWGLLACELRSVNHRFLDIVIRLPEELRALEPQLRERVAARVSRGKLDLTVRLSPQEIHTGKLVVNELLLSQLSTLALRLSAQFPALRVTFAELLQIPGVLKGEQIDMATLQGHAVALLDKVLNNFIATREREGLKMQAMIAQRASAIERIVGEVRILIPTIREGQHNKLSARMNHLSYPVDPGRIEQELVLWLQKLDVDEELDRLSSHISELHRILQQREPVGRRLDFLMQEFNREANTLGSKSVDSRTSNATIELKVLIDQIREQVQNIE”, the “soluble on expression in E. coli” value was “soluble”. As for “MAVSQGVSLKEDLKDLVRKAEEIGRELSGKLKTNQLRKFHGHLTKIWSNYIYKKKDYRDNPEKFNEEILNELHFMKIFLAYQVGRDIEGISELKEILEPLIDEIKTPDEFEKFKKFYDAILAYHKFHSESEKSNRRTARR”, the entry is “not soluble”; as for “MRYFIVAGEASGDLHASNLVRALKEHDPEAVFAFMGGDFLSEATGERPIFHYREVAFMGFIPVLTHLGVIRRAGEHVQEQMRAFNPDVVIAVDYPGFNMRYVLPFVREELGKPIVYYISPKVWAWKSWRIKTLKKYVDLMLCILPFEKDFFAGHDFPVIYVGNPCYDAVKQHMRPTIEEQERSAKDSRQVALLCGSRLLEVKENLPVMLRVMKQFPDYRPVIAGAPGLTIQDYTPFLPDDSIPVVFGRTYEILRESKAALVTSGTATLETALIGTPQVVCYYIRGGRLTNLIFKYCFGTPFISLTNLIAGRAVVPELFGALFTEKRLAASLSPLLDASSAERQAQLSGYDSIRKSIGTDNTSDKAARHIIARFAKDNARPSSL”, “not soluble”; as for “MGVPIGDLVPRKEIDLENLYGKKIAIDALNAIYQFLSTIRQEDGTPLMDSKGRITSHLSGLFYRTINLMEAGIKPAYVFDGKPPEFKRKELEKRREAREEAELKWKEALAKGNLEEARKYAQRATKVNEMLIEDAKKLLQLMGIPIIQAPSEGEAQAAYMASKGDVYASASQDYDSLLFGAPRLIRNLTITGKRKMPGKDVYVEIKPELVVLDEVLKELKITREKLIELAILVGTDYNPGGVKGIGPKKALEIVRYSRDPLAKFQRQSDVDLYAIKEFFLNPPVTNEYSLSWKEPDEEGILKFLCDEHNFSEERVKNGIERLKKAIKAGRQSTLESWFVKKKP”, “soluble”. In the case of “GPGSMKRLLDSAKHLLRGGSLGYLASGEPYHPFGEDFGLTVFPDYIQLREKLALRSGYVDVYTQRSASIKLSDGRFQLPPLPKHSFLPLVERLEQDGIVPRGWLNNQTANLYEPEDFIRAHIDNLFVYDDIFAVISLGANALLRFVHVQNGEELDVVIPDGSVYIMSGPSRYVYFHMVLPVEAQRVSIVFRRSILNSDGGFRPVSTPLGDLMPYRSTQILNTLYAKQIGGVRVAVDDKYLEKEEIGAFDTGKWVKGLHPLRDWTLLSQLDEDEARVLELREKRYLDVDLSWRFTELRKRYKELEDMLRV” it was “not soluble”; in that of “MKALIFAAGFGERMRPLTEHTPKPLLSVGGAPLIVWHLRKLAALGVDEAVINTSWLAEQFPQLLGDGSAYGLRLTYSYEGTTPLETGGGMLHALPLLGDAPFLLINGDIWTDFDFSRLSHAPKGLAELVLVDRPSYAARADFALDADGKVRVDLPATLTYSGIGMYRPALLRDWQSVNGPLPEQVGTAPRFALAPILRAKMAQGLIDGIHHPGRWTDVGTPQRLAALDAQLLGDGGLEHHHHHH”, “not soluble”. As to “SGCRCCKIIQSYLFDPVQVPSPGYVNEVNSCKLDEDDTDKLKGKWSSEVLVQKNDPQRQGSKKTESSSRTADPWEPCWPHQGPLPQGDAGGEHHACGVNGIGPAATPQPTGNSSPTQDDRGSWASTANTVPPTQPFLEGGGTRKQDCVLLASEGTQVMRNGDSRAPSEAESFALEVQDHVFQIPAPDYLQHWGPAGDNVDHNEKDCVFKNHTEDESLEGIQPPVGEHGLNTPFSVRRSWDSLNEDVETEVLSICFNEKGPVHAMPVVDSGNRQEDTHGSDGDGDGEIVDEDAAVAEALAALEAATAGEDLDETD”, the “soluble on expression in E. coli” value is listed as “soluble”. For the sequence “MGSDKIHHHHHHMAFNFGCLNSPETVSSALATRENSLGLAIDPFLAPVAMVATQDIVLRQYFRERIVLGQENLPMQGPVLLAPTHRSRWDALMLPMAAGRRVTGRDCRFMVTVDEMKGLQGWFLHRLGCFPVNQSKPSLTSLRYAIDLMADGQQVVVFPEGTINRTEKPIKLYQGLARLAQLAKSQNIDVQVVPVGLGYSEVIPKACGRASICFAEPMKVLETGREAVKSFNAELSEKMHAAEQAALHAVGRLKKAP”, the “soluble on expression in E. coli” value is listed as “not soluble”. As to “MQYHEIGKTGMKVSSLSFGASSLGGVFHDLKEKEGIQAVFTAIEAGMNFIDVSPYYGHYKAETVLGKALKDIPRDRYYLSTKVGRYGKDGVNTWDYSAKRATESVYESMERLNIDFIDLINVHDIEFADLNQVVNETLPALVELREKGVVGHVGITDLQLENLKWVIDRSPSGTIESVLSFCHYCLCDDKLADFLDYFESKEIGVINASPLSMGLLSERGVPVWHPAPKPLVDACRKAMEHCKAKNYPIEKLAMQFSVSNPKIATTLFSTTNPENVKKNIGFIEEPVDWELVREVREIIGEQQRVSWANS”, the “soluble on expression in E. coli” value is given as “not soluble”. As to “VTPELDEREQEVIVRSAINQFEGFIKLNKKIPPEVLTSLNGIDEAARLADTIAAHMPLKLVDKQQVLEIIDVTERLEFLMGQMESEIDLLQVEKRIRGRVKKQMEKSQREYYLNEQMKAIQKELGEMEDAPDEFETLQKKIDESKMPQEAREKTEQELQKLKMMSPMSAEATVVRSYIDWMVSVPWTKRSKVKKNLAKAEEILNEDHYGLERVKERILEYLAVQNRINKLKGPILCLVGPPGVGKTSLGRSIASATGRKYVRMALGGVRDEAEIRGHRRTYIGSLPGKLIQKMSKVGVKNPLFLLDEIDKMSSDMRGDPASALLEVLDPEQNNSFNDHYLEVDYDLSDVMFVATSNSMNIPGPLLDRMEVIRL”, the “soluble on expression in E. coli” value is given as “not soluble”. With “MGSDKIHHHHHHMRHIAHYCVAHPAGSMVVPGTRKKRELLPSAAPWRLSGVFVSLDEIRKDWTTLGAAAPLWAVCVDPAKRHGGWDDDEFLASGRAEIDAAMARLAELGIAHGRERALDFGCGAGRLSNALAAYFDRVVGVDISAPMLAEARRLDRSGGRIDFLLNDAPDLKIFPDASFDLVYTDLVLQHLPPPLARGYLAEFARVLRPGGALVAGMPATERRTVKGLVFRYAPHRVIRFIQRVLLGYPAPMRMHTMPPEQMRELLASHGVRVVSAEEYAGDDHGTHWVHMRYYARKDPGAAL”, the “soluble on expression in E. coli” value is listed as “not soluble”.

The values above are taken from the DeepSol protein solubility set.
